# US20220073608A1 (JIANGSU HUAIYU PHARMACEUTICAL, published 2022)
# T1: human SEMA4D, full length, on CHO-K1 cells (CHO-K1 hSEMA4D) (human, UniProt Q92854 22-862)
# T1 construct: whole, on cells; also called human SEMA4D recombinant cells
# T1 sequence (looked up): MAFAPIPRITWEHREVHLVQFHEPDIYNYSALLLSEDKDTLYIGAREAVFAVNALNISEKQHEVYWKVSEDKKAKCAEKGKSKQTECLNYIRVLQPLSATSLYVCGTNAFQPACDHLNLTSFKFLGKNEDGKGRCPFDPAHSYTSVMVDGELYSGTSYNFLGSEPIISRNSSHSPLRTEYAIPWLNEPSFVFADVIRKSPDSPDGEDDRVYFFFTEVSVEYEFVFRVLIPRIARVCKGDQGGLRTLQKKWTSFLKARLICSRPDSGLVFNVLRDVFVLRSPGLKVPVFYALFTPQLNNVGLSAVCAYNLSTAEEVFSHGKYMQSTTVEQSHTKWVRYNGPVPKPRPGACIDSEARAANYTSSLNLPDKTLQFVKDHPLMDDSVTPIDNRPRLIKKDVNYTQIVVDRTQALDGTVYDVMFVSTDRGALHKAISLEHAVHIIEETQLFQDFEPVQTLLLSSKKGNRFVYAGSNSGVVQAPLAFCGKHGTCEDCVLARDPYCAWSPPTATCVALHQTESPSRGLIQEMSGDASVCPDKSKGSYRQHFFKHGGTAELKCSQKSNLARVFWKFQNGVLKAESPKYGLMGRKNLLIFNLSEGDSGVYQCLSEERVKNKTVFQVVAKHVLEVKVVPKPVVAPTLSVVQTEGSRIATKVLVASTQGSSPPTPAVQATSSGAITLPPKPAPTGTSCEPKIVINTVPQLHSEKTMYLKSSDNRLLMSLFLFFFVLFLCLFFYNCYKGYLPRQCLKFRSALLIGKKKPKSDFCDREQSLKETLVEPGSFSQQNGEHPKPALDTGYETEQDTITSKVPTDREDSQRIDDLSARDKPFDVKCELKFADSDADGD
# T2: mouse SEMA4D, full length, on CHO-K1 cells (CHO-K1 mSEMA4D) (mouse, UniProt O09126 24-861)
# T2 construct: whole, on cells; also called murine SEMA4D recombinant cells
# T2 sequence (looked up): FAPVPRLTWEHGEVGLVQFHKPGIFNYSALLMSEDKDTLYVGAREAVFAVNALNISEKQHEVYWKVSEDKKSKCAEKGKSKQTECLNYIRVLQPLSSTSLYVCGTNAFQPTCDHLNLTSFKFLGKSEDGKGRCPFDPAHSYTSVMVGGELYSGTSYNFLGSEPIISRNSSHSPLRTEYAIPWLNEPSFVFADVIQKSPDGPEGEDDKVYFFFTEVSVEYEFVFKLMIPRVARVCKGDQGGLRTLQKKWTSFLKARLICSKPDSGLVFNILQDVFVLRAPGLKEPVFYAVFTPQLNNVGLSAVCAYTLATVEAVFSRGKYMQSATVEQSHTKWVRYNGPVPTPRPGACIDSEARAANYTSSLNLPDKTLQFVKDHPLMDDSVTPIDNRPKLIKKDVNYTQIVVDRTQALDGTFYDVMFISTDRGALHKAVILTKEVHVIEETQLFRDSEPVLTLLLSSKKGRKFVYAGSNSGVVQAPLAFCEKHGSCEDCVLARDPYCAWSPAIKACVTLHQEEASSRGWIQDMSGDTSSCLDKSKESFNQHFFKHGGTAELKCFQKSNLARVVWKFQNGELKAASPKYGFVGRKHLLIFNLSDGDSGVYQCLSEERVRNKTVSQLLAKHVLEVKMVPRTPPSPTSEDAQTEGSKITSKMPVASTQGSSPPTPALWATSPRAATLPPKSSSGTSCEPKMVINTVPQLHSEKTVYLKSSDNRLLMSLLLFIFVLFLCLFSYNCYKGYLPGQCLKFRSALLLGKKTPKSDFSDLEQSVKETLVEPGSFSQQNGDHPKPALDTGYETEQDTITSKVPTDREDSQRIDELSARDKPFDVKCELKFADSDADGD
# Key:
# [1] = biological target: T1, human SEMA4D, full length, on CHO-K1 …; experiment: FACS, CHO-K1 hSEMA4D cells; Ab 0.107 nM
# Method: (§1) The medium was aspirated, the cells were washed once with PBS buffer (purchased from Invitrogen), and then treated with cell dissociation fluid (TrypLE™ Express Enzyme, purchased from Life technology), and the cells were collected. After the cells counted, the cells were washed once with PBS phosphate buffer, and diluted to 3×10⁶ cells per milliliter, and added to the 96-well FACS reaction plate as 100 μL per well. 2% (w/w) fetal calf serum was added to PBS phosphate buffer as FACS buffer, with which the cells were washed once by centrifugation at 2000 rpm 4° C. 100 μL of diluted and purified leading antibodies was added to each well and the plate was incubated for 1 hour on ice. […] Cells were washed 2 times by centrifugation with FACS buffer. The cells were suspended with 200 μL of FACS buffer, and FACS (FACS Verse, purchased from BD) was used to detect and analyze the results.
# [2] = biological target: T1, human SEMA4D, full length, on CHO-K1 …; experiment: competitive FACS, CHO-K1 hSEMA4D cells; unlabelled Ab 6 ug/mL first, competitor Alexa 488-VX15 0.67 ug/mL
# Source text: The purified hybridoma SEMA4D antibodies and fully human SEMA4D antibody were subjected to competitive flow cytometry (FACS) to analyze whether the epitopes bound by different antibodies competed with that bound by the reference antibody VX15.
# as §1, with “the” for “diluted and purified”, “antibodies and IgG control diluted to a concentration of 6 μg/mL” for “antibodies”
# [3] = biological target: T3, monkey SEMA4D, full length, on CHO-K1 cells (CHO-K1 cSEMA4D) (monkey); experiment: FACS, CHO-K1 cSEMA4D cells; Ab 0.534 nM
# T3 construct: whole, on cells; also called monkey SEMA4D recombinant cells
# Method: (§2) After the cells were counted, they were diluted with PBS to 2×10⁶ cells per milliliter. After washing, 100 μL of diluted and purified leading antibodies was added to each well and the plate was incubated for 1 hour on ice. […] Cells were washed 2 times by centrifugation with FACS buffer. The cells were suspended with 200 μL of FACS buffer, FACS (FACS Verse, purchased from BD) was used to detect and analyze the results.
# [4] = biological target: T2, mouse SEMA4D, full length, on CHO-K1 …; experiment: FACS, CHO-K1 mSEMA4D cells; Ab 0.107 nM
# Method: as §2
Binder,MFI [1],inhibition rate (%) [2] [%],MFI [3],MFI [4]
"42B7G2 (antibody, V domains shown, Mouse monoclonal antibody purified from hybridoma supernatant on protein A) VH: QVQLQQSGAELARPGASVKLSCKASGYTFTDYGISWVKQRTGQGLEWIGEIYLRNDNSYYNEKFKGKATLTADKSSNTAYMELRSLTSEDSAVYFCARWGDHGNNYEDAMDYWGQGTSVTVSS VL: DIVLTQSPASLAMSLGKRATISCRASESVSIIGSNLIHWYQQKPGQPPKLLIYHASNLETGVPARFSGSGSRTDFTLTIDPVEEDDVAIYYCLQSRKVPYTFGGGTKLEIK",598,15,1690,30.4
"32C8F10 (antibody, V domains shown, Mouse monoclonal antibody purified from hybridoma supernatant on protein A) VH: EVQLQQSGAELVRPGASVKLSCTASGFNIKDEYIHWVKQRPEQGLEWIGWIDPANGHTEYASRFQAKATITADTSSNTAYLQLSSLTSEDTAVYYCTTGDYDGFAYWGQGTLVTVST VL: QIVLTQSPAIMSASPGEKVTISCSARSSVSYMYWYQQKPGSSPKPWIYRTSNLASGVPARFSGSGSGTSYSLTISSMEAEDAATYYCQHYHTYPYTFGGGTKLEIK",832,42,2930,30.2
"31C11G2 (antibody, V domains shown, Mouse monoclonal antibody purified from hybridoma supernatant on protein A) VH: EVQLQQSGAELVRPGASVKLSCTASGFNIKDEYIHWVKQRPEQGLEWIGWIDPANGHTEYASRFQAKATITADTSSNTAYLQLSSLTSEDTAVYYCTTGDYDGFVYWGQGTLVTVST VL: QIVLTQSPAIMSASPGEKVTIFCSARSSVSYMYWYQQKPGSSPKPWIYRTSNLASGVPARFSGSGSGTSYSLTISSMEAEDAATYYCQHYHTYPYTFGGGTKLEIK",906,44,2980,30.6
"37C4F7 (antibody, V domains shown, Mouse monoclonal antibody purified from hybridoma supernatant on protein A) VH: EFQLQQSGPEVVKPGASVKISCKASGYSFTDYNMNWMKQSKGKSLEWIGVINPNYGTTTYNQNFKGKATLTVDQSSSTAYMQLNSLTSEDSAVYYCARDMYYVYAYYTMDYWGQGTSVTVSS VL: DVVMTQTPLSLPVSLGDQASISCRSSQSLVHSNGHTYLHWYLQRPGQSPTLLIYKVSNRFSGVPDRFSGSGSGTDFTLKISRVEAEDLGVYFCSQGTHVPWTFGGGTKLEIK",210,20,760,30.1

# Now from value to binder:
MFI [1],inhibition rate (%) [2] [%],MFI [3],MFI [4],Binder
855,42,3490,29.6,"31G10C5 (antibody, V domains shown, Mouse monoclonal antibody purified from hybridoma supernatant on protein A) VH: EVQLQQSGAELVRPGASVKLSCTASGFNIKDDYIHWVKQRPEQGLEWIGWIDPANGHIEYASNFQAKATITADTSSNTAYLQLSSLTSEDTAVYYCTTGDYDGFTYWGQGTLVTVST VL: QIVLTQSPAIMSASPGEKVTISCSARSSVSYMYWYQQKPGSSPKPWIYRTSNLASGVPARFSGSGSGTSYSLTISSMEAEDAATYYCQHYHTYPYTFGGGTKLEIK"
308,25,925,29.7,"37F11F9 (antibody, V domains shown, Mouse monoclonal antibody purified from hybridoma supernatant on protein A) VH: EVQLQQSGPVLVKPGASVKMSCKASGYTFTDYYMNWVKQSHGKSLEWIGLINPYSGGSTFNQKFKAKATLTVDKSSSSAYMDLNSLTSEDSAVYYCARVGDGYYGVTHGMDYWGQGTSVTVSS VL: DIVMTPSQKFMSTTVGDRVSITCKASQNVGTAVAWYQQKPGQSPTILIYSASNRYTGVPDRFTGSGSGTDFTLTISNMKSEDLADYFCQQYYIYPFTFAAGTKLELK"
215,21,601,30.5,"38H2E3 (antibody, V domains shown, Mouse monoclonal antibody purified from hybridoma supernatant on protein A) VH: EFQLQQSGPEVVKPGASVKISCKASGYSFTDYNMNWMKQSKGKSLEWIGVISPDYGTTTYNQNFKDKATLTVDQSSSTAYMQLNSLTSEDSAVYYCAKDMYYVYAYYTMDYWGHGTSVTVSS VL: DVVMTQTPLSLPVSLGDQASISCRSSQSLVHSNGHTYLHWYLQRPGQSPTLLIYKVSNRFSGVPDRVSGSGSGTDFTLKISRVEAEDLGVYFCSQGTHVPRTFGGGTKLEIK"
